This passage reports Kd results from patent publication US20240352102.

Series [1] has as its system tau isoform 1N3R (3R tau, MAPT) (Homo sapiens), P10636-4. As to the kind of experiment: SPR. The settings on record: 50 mM HEPES, 25 mM NaCl, 0.1% Tween-20, pH 7.4; poly(A) length not restated for 3R.
In series [2] the test system is tau isoform 1N4R (4R tau, MAPT) (Homo sapiens), P10636-7. As to the kind of experiment: SPR. The following applies: 50 mM HEPES, 25 mM NaCl, 0.1% Tween-20, pH 7.4.
Sequence of tau isoform 1N4R (4R tau, MAPT) (Homo sapiens), P10636-7 (P10636 other isoform, or with tags, fused parts or gaps): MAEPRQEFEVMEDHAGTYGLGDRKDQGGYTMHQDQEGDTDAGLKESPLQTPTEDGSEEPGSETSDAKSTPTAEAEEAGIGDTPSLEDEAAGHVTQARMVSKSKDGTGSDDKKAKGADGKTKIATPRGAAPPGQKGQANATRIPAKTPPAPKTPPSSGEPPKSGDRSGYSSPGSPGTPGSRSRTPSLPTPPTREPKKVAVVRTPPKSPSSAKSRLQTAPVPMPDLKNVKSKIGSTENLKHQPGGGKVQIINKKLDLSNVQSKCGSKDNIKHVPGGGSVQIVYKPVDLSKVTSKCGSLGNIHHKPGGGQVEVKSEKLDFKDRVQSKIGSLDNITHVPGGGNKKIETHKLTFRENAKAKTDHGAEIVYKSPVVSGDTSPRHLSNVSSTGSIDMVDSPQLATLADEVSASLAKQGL

Sequence of tau isoform 1N3R (3R tau, MAPT) (Homo sapiens), P10636-4 (P10636 other isoform, or with tags, fused parts or gaps): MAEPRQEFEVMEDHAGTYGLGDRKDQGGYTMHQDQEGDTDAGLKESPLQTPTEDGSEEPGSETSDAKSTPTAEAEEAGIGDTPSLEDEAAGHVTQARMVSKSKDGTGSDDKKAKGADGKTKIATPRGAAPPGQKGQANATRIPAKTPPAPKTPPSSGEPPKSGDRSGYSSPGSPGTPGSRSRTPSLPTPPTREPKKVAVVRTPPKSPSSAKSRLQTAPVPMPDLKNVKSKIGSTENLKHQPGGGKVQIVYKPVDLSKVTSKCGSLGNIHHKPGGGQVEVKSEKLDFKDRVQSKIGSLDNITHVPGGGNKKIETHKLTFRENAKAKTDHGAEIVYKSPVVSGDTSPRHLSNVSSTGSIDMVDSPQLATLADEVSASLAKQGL

For the substance A [biotin poly(A)20 RNA], the Kd (as a rule, a measure of binding affinity in units of concentration) in series [1] amounted to 8.3 nM; in series [2] (streptavidin chip, poly(A)20 length from FIG. 1B trace) it was 7.2 nM.
The substance biotin tRNA-Lys gave a Kd in series [2] of more than 30 nM.
